Measurements taken from the Human Domainome abundance scans (Beltran et al. 2025).
± gives the uncertainty stated by the source.

B1: Far upstream element-binding protein 3, residues 75 to 150; numbered along this chain, Q96I24 (parent)
chain: RTVITEEFKVPDKMVGFIIGRGGEQISRIQAESGCKIQIASESSGIPERPCVLTGTPESIEQAKRLLGQIVDRCRN

Variants of: B1
Test: abundance fitness (aPCA) (normalised: wild type 0, dead -1); higher = more abundant; growth selection in yeast, the domain comes from the species named
Details: Homo sapiens

Variant | abundance fitness
L53A | -0.473 ± 0.045
L53S | -0.838 ± 0.065
L53V | -0.227 ± 0.033
I37K | -0.522 ± 0.046
G16Y | -0.135 ± 0.058
G16I | -0.194 ± 0.075
G16V | -0.172 ± 0.031
E32C | -0.128 ± 0.042
E32V | -0.073 ± 0.027
E32S | -0.093 ± 0.032
E32T | -0.055 ± 0.044
E32H | -0.2 ± 0.064
D72F | -0.118 ± 0.065
D72M | -0.084 ± 0.042
G45W | -0.15 ± 0.032
G45C | -0.094 ± 0.037
F8D | -0.208 ± 0.07
F8C | -0.317 ± 0.041
F8R | -0.543 ± 0.029
K64A | -0.429 ± 0.031
L67G | -0.864 ± 0.042
L67M | -0.099 ± 0.046
I60W | -0.995 ± 0.059
I60K | -0.767 ± 0.065

Variant | abundance fitness
K13N | 0.004 ± 0.057
K13M | -0.207 ± 0.042
K13R | -0.046 ± 0.026
G34C | -0.268 ± 0.054
G34T | -0.268 ± 0.044
G34I | -0.736 ± 0.2
P47Y | -0.12 ± 0.058
P47W | -0.084 ± 0.032
P47G | -0.058 ± 0.025
Q38E | -0.013 ± 0.035
Q38G | -0.105 ± 0.024
Q38I | -0.098 ± 0.075
Q38D | -0.092 ± 0.047
Q38S | -0.06 ± 0.035
R28N | -0.125 ± 0.069
Q62M | -0.023 ± 0.042
Q62H | -0.011 ± 0.037
L66P | -0.899 ± 0.07
L66N | -0.221 ± 0.062
A31P | -0.774 ± 0.048
S43L | -0.102 ± 0.035
R1K | 0.008 ± 0.055
C35N | -0.539 ± 0.11
C35R | -0.732 ± 0.035

Variant | abundance fitness
C35I | -0.397 ± 0.082
C35Q | -0.588 ± 0.074
C35S | -0.276 ± 0.039
C35F | -1.06 ± 0.12
A40W | -0.1 ± 0.033
A40L | -0.038 ± 0.03
C74T | 0.004 ± 0.036
C74G | 0.041 ± 0.027
V52R | -0.072 ± 0.029
V52F | -0.107 ± 0.061
E6I | -0.111 ± 0.057
E6P | -0.807 ± 0.054
E6R | -0.099 ± 0.028
G22V | -0.191 ± 0.031
G22F | -0.1 ± 0.065
I70S | -0.055 ± 0.034
I70R | -0.024 ± 0.028
I70H | -0.096 ± 0.055
I70N | -0.261 ± 0.087
A63I | -0.457 ± 0.087
A63T | -0.412 ± 0.041
A63W | -1.25 ± 0.064
R65Y | -0.046 ± 0.052
R65V | -0.006 ± 0.029

Variant | abundance fitness
R65F | 0.017 ± 0.058
Q30T | -0.11 ± 0.043
Q30I | -0.131 ± 0.059
Q30D | -0.582 ± 0.059
Q30E | 0.029 ± 0.033
Q25R | 0.023 ± 0.026
Q25N | -0.041 ± 0.072
Q25L | -0.138 ± 0.033
E61A | -0.037 ± 0.032
E61D | 0.027 ± 0.044
E61I | -0.105 ± 0.055
I29Q | -0.599 ± 0.052
I29D | -0.432 ± 0.052
I29K | -0.676 ± 0.058
T5P | -0.394 ± 0.059
T5C | -0.203 ± 0.073
S44T | -0.015 ± 0.039
S44E | -0.009 ± 0.034
S44L | -0.017 ± 0.034
S44P | -0.058 ± 0.043
F17E | 0.025 ± 0.037
S41Y | -0.164 ± 0.069
S41V | -0.089 ± 0.03
S41P | -0.027 ± 0.041

Variant | abundance fitness
R75E | 0.047 ± 0.043
R75T | 0.052 ± 0.044
R75P | -0.025 ± 0.038
T54S | -0.078 ± 0.045
T54E | -0.071 ± 0.05
N76P | 0.007 ± 0.059
N76W | -0.092 ± 0.056
N76H | -0.1 ± 0.076
T2V | -0.035 ± 0.033
T2Y | -0.069 ± 0.06
T2D | -0.061 ± 0.053
I26G | -0.533 ± 0.029
I26Y | -0.288 ± 0.062
I26H | -0.144 ± 0.052
D12F | -0.186 ± 0.064
D12R | -0.1 ± 0.028
R73G | 0.054 ± 0.029
R73V | -0.037 ± 0.033
R73C | -0.157 ± 0.05
V15F | -0.072 ± 0.053
V15T | -0.158 ± 0.038
V15H | -0.218 ± 0.051
V15S | -0.102 ± 0.033
V15D | -0.324 ± 0.047

Variant | abundance fitness
I4R | -0.065 ± 0.026
I4N | -0.081 ± 0.061
I4E | -0.059 ± 0.034
I4W | -0.125 ± 0.033
G20T | -0.228 ± 0.044
G20Q | -0.116 ± 0.04
G20S | -0.151 ± 0.035
G20E | -0.127 ± 0.034
G20C | -0.459 ± 0.047
G20H | -0.243 ± 0.067
G68I | -0.092 ± 0.061
G68Y | -0.045 ± 0.056
G68C | -0.066 ± 0.048
G68M | 0.001 ± 0.044
S27Q | -0.066 ± 0.05
S27Y | -0.241 ± 0.095
V10L | -0.036 ± 0.029
E7K | -0.01 ± 0.041
E7Y | -0.037 ± 0.055
E7T | -0.002 ± 0.042
E7C | -0.135 ± 0.037
Q69G | -0.012 ± 0.03
E24G | -0.045 ± 0.028
E24D | -0.053 ± 0.049

Variant | abundance fitness
C51A | -0.075 ± 0.036
C51T | -0.108 ± 0.043
P11Q | -0.235 ± 0.04
P11K | -0.298 ± 0.053
P11L | -0.236 ± 0.036
I18L | -0.085 ± 0.032
I18Q | -0.234 ± 0.04
I18E | -0.182 ± 0.035
I18W | -0.243 ± 0.037
I18M | -0.079 ± 0.039
I18S | -0.271 ± 0.034
I18Y | -0.261 ± 0.065
I46L | 0.018 ± 0.031
P50V | -0.031 ± 0.03
P50L | -0.043 ± 0.03
P57R | -0.013 ± 0.031
K9Y | -0.114 ± 0.056
K9T | -0.057 ± 0.038
M14L | -0.061 ± 0.032
M14A | -0.172 ± 0.035
M14G | -0.311 ± 0.026
I19E | -0.081 ± 0.051
I19P | -0.25 ± 0.043
